Test results reported in patent US20220289857A1 (Kyowa Kirin, published 2022).
Substitutions are numbered along the chain they refer to. In names and notes the source's numbering stands. Several values for one entry are separate records, joined by “and”; a condition that tells them apart may be missing. Equal entries are not always repeated.

B1: chimeric R35B9 (antibody, human IgG4 S228P, kappa)
heavy chain: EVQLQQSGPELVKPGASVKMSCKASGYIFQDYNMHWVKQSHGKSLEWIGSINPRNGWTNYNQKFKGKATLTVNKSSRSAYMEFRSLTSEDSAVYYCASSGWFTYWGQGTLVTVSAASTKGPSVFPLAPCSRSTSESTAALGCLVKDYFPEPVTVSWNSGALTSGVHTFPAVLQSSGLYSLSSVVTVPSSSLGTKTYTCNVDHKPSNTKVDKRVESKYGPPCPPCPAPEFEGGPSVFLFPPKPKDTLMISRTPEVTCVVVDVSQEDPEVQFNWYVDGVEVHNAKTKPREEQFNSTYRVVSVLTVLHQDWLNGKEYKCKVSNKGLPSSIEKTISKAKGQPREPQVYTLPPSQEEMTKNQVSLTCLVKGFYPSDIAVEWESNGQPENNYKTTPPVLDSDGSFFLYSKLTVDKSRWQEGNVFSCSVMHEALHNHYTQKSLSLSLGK
light chain: DVVMTQTPLTLSVAIGQPASISCKSSQSLLNSAGKTYLNWLLQRPGQSPKRLIYLVSQLDSGVPDRFTGSGSGTDFTLKISRVEAEDLGVYYCWQGTFYPWTFGGGTKLEIKRTVAAPSVFIFPPSDEQLKSGTASVVCLLNNFYPREAKVQWKVDNALQSGNSQESVTEQDSKDSTYSLSSTLTLSKADYEKHKVYACEVTHQGLSSPVTKSFNRGEC
notes: It may be the same molecule as m27, R35B9 (A451/A452), but neither the sheet nor the text says so; also called mouse-human chimeric R35B9
B2: A515/A518 humanized IgG4 Nullbody, kappa antibody (antibody, V domains shown)
VH: QVQLVQSGAEVVKPGASVKVSCKASGYIFQDYNMHWVRQAHGQGLEWMGYINPRNAGTNYNQKFKGRVTITADKSTRTAYMELSSLRSEDTAVYYCASSGWFTYWGQGTLVTVSS
VL: DVVMTQSPLSLPVTLGQPASISCKSSQSLLNSAGKTYLNWLQQRPGQSPRRLIYLVSQLDSGVPDRFSGSGSGTDFTLKISRVEAEDVGVYYCWQGTHYPWTFGGGTKVEIKR
notes: also called hzR35B9(Y50A56G57)-HV7b / hzR35B9(H98)-LV1a
B3: A512/A468 humanized IgG4 Nullbody, kappa antibody (antibody, V domains shown)
VH: B2 VH with A9P, G44S, Y50S, G57W, V68A, A72V
VL: B2 VL with H98F
notes: Human IgG4null constant (S228P, L235E, R409K); also called hzR35B9(A56)-HV11 / hzR35B9-LV1a
B4: A553/A472 humanized IgG4 Nullbody, kappa antibody (antibody, V domains shown)
VH: B2 VH with V12K, R38K, H41P, M48I, Y50S, G57W, R67K, V68A, K74T, R77S
VL: B2 VL with L15I, Q42L, R50K, H98F
notes: also called hzR35B9(A56)-HV7c / hzR35B9-LV4
B5: KO41c mouse monoclonal antibody (hybridoma-derived) (antibody, V domains shown)
VH: EVQLQQSGPELVKPGASVKMSCKASGYTFTDYNMHWVKQSHGKSLEWIGYINPNNGGTNYNQKFKGKATLTVNKSSRSAYMEFRSLTSEDSAVYYCASSGWFTYWGQGTLVTVSA
VL: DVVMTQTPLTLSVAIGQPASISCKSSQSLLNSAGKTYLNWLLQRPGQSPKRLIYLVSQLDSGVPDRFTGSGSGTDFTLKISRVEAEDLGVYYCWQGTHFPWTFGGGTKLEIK
notes: Hybridoma supernatant or purified antibody from an Fn14 knockout mouse; native mouse IgG, kappa
B6: R35B9 (A451/A452) antibody (antibody, V domains shown)
VH: B5 VH with T28I, T30Q, Y50S, N54R, G57W
VL: not shown
B7: R35B9(A56) (A486/A452) antibody (antibody, V domains shown)
VH: B5 VH with T28I, T30Q, Y50S, N54R, G56A, G57W
VL: not shown
notes: G56A in HCDR2 removes the NG deamidation site; Constant regions not clear
B8: A641/A468 humanized IgG4 Nullbody, kappa antibody (antibody)
heavy: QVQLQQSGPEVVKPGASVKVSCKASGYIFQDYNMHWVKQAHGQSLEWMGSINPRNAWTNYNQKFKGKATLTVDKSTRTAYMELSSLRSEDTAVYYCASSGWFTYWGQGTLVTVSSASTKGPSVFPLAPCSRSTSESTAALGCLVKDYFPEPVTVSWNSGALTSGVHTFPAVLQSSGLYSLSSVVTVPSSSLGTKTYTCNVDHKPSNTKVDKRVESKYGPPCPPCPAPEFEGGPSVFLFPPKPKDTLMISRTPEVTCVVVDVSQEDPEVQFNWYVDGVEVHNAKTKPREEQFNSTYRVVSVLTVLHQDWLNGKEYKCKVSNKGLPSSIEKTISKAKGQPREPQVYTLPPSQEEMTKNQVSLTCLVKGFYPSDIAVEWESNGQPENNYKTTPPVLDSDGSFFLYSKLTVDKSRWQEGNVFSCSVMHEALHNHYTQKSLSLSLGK
light: B1 light chain with T7S, T10S, S12P, A14T, I15L, L42Q, K50R, T68S, L88V, L109V
B9: A648/A468 humanized IgG4 Nullbody, kappa antibody (antibody, V domains shown)
VH: QVQLQQSGPEVVKPGASVKVSCKASGYIFQDYNMHWVKQAHGQSLEWMGSINPRNAWTNYNDKFKGKATLTVDKSTRTAYMELSSLRSEDTAVYYCASSGWFTYWGQGTLVTVSS
VL: B2 VL with H98F
B10: A650/A468 humanized IgG4 Nullbody, kappa antibody (antibody)
heavy: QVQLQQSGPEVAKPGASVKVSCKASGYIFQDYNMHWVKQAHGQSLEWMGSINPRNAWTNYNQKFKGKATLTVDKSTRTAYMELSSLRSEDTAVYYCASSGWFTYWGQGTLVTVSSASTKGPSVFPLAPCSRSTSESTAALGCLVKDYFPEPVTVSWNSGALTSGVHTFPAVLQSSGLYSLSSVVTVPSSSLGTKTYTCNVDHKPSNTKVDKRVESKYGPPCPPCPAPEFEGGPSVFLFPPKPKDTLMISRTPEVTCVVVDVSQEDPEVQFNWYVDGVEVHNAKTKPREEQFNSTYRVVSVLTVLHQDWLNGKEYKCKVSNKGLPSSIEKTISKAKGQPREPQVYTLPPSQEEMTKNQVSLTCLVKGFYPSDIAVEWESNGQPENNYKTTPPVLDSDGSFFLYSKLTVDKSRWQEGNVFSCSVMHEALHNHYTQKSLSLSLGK
light: B1 light chain with T7S, T10S, S12P, A14T, I15L, L42Q, K50R, T68S, L88V, L109V
B11: A437/A290 mouse IgG1(D265A), kappa antibody (antibody, V domains shown)
VH: B5 VH with T28I, T30Q, N54R, G57W
VL: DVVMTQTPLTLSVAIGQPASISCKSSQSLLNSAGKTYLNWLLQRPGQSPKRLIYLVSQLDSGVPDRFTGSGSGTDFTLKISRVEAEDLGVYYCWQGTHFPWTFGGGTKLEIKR
B12: A448/A439 mouse IgG1(D265A), kappa antibody (antibody, V domains shown)
VH: B5 VH with T28I, T30Q, N54R
VL: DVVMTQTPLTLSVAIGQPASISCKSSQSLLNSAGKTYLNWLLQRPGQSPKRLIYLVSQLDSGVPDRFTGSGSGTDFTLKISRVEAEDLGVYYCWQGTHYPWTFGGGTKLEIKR
B13: A448/A290 mouse IgG1(D265A), kappa antibody (antibody, V domains shown)
VH: B5 VH with T28I, T30Q, N54R
VL: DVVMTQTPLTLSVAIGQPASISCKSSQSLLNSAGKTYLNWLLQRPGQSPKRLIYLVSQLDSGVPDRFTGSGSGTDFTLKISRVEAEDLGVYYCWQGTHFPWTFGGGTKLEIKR
B14: CRCBT-06-002 as mouse IgG1(D265A), kappa antibody (antibody, V domains shown)
VH: EVKLQQSGGGLVQPGGSMKLSCVASGFTFSYYWMNWVRQSPEQGLEWIAEIRLQSNDYPTHYAESVKGRFTISRDDSKNSVYLQMNNLRPEDTGIYYCACRYADYFDHWGQGTTLTVSS
VL: DTVLTQSPASLVVSLGQRATISCRASQSVSTSDYSYIHWYQQKPGQPPKFLIKYASNRDSGVPARFSGSGSGTDFTLNIHPVEEDDTAIYYCQHSWEIPPTFGAGTKLELQR

target: T1, human Fn14 (full length) on cells (human, UniProt Q9NP84 28-129); assay: flow cytometry blocking assay on HRMC: antibody for 30 min, then recombinant human TWEAK at 250 ng/mL for 45 min; bound TWEAK detected with biotinylated goat anti-human TWEAK and streptavidin-PE; blocked ligand: TWEAK
T1 construct: Transfected 293F cells, or endogenous on HK2, HRMC, A375, HaCaT, primary keratinocytes and dermal fibroblasts; also called hFn14; TNFRSF12A
T1 sequence: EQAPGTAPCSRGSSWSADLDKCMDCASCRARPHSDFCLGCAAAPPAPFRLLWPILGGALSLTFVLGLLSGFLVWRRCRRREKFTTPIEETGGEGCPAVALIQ
Protocol: FIG. 25 depicts that humanized anti-Fn14 antibodies blocked TWEAK binding to Fn14 expressed on cells. HRMC were incubated with individual antibodies at various concentrations for 30 minutes followed by incubation with recombinant human TWEAK (250 ng/mL) for 45 minutes. Binding of TWEAK to HRMC cells was detected with biotinylated goat-anti-human TWEAK followed by streptavidin-PE. Stained cells were acquired on a Fortessa. % TWEAK blocking was calculated using the following formula: 100-(Geometric mean fluorescence intensity of sample—Geometric mean fluorescence intensity of cells without TWEAK)/(Geometric mean fluorescence intensity-TWEAK alone with no antibody—Geometric mean fluorescence intensity of cells without TWEAK)*100.
HRMC cells were incubated with individual antibodies at various concentrations (0.015625-1 ng/mL) for 30 minutes at room temperature. Recombinant human TWEAK (R&D Systems, Cat# 1090-TW/CF) was then added to the cells and incubated for 45 minutes at room temperature. Binding of TWEAK to HRMC cells was detected with a biotinylated goat-anti-human TWEAK (R&D Systems, Cat# BAF1090) followed by streptavidin-PE (Biolegend, Cat# 405204). Stained cells were acquired on a Fortessa. % TWEAK blocking was calculated using the following formula: 100-(Geometric mean fluorescence intensity of sample—Geometric mean fluorescence intensity of cells without TWEAK)/(Geometric mean fluorescence intensity—TWEAK alone with no antibody—Geometric mean fluorescence intensity of cells without TWEAK)*100.

| Binder | IC50 (read off the curve) | binding result |
| --- | --- | --- |
| B1 | ~0.2 µg/mL |  |
| B2 |  | binds |
| B3 | ~0.3 µg/mL |  |
| B4 |  | binds |

target: T2, rat Fn14, endogenous on NRK-52E cells (rat, UniProt Q9CR75 28-129 (mouse entry)); assay: flow cytometry on NRK-52E cells (endogenous rat Fn14), purified antibody 1 µg/mL, detected with anti-mouse IgG PE
T2 construct: Endogenous protein of rat kidney cells; also called NRK52E-A15/Luc cells
Protocol: Primary antibodies were used at a concentration of 1 μg/mL and binding was detected using anti-mouse IgG PE.
(§1) Specifically, the binding activity of hybridoma culture supernatants or purified antibodies to Fn14-expressing cells was evaluated by flow cytometry (FCM). The cell lines evaluated by FCM were Fn14-transfected human embryonic kidney 293F cells (ThermoFisher, cat# R79007) and two cell lines endogenously expressing Fn14, human kidney-derived HK2 cells (ATCC, cat# CRL-2190) and rat kidney-derived NRK-52E cells (Japanese Collection of Research Bioresources Cell Bank (JCRB), cat# IF050480). For FCM analysis, Fn14-expressing cells were harvested using 0.25% trypsin-EDTA (Nacalai Tesque), washed with PBS, and resuspended in SM (Staining Medium: PBS containing 2% FBS, 1 mM EDTA, 0.05% sodium azide). Cells were then seeded in a 96-well plate at 1 ×10⁵ cells per well. Hybridoma supernatant or purified antibody (1 μg/mL final concentration) was added and the cells were incubated at 4° C. for 60 minutes. Cells were then washed with SM, resuspended in goat F(ab′)2 anti-mouse IgG-PE (Southern Biotech Inc.), diluted 1:500 in SM and incubated at 4° C. for 60 minutes. Cells were washed with SM and finally resuspended in 50 μL of SM. Fluorescence intensity was measured by FCM (BD Biosciences, FACS CantoII) and the data were analyzed using FlowJo software (Tomy Digital Biology Co., Ltd.).

T2 sequence (Q9CR75 other isoform, or with tags, fused parts or gaps limits assumed): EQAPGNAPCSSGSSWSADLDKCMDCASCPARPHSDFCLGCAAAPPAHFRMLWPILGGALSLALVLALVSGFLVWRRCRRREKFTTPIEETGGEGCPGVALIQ

| Binder | binding result |
| --- | --- |
| B5 | binds |

target: T3, His-SUMO-huFn14 (soluble human Fn14 aa 28-75 with N-terminal 6xHis-SUMO tag) (human); assay: SPR Biacore; His-Sumo-huFn14 0.111-9 nM
T3 construct: also called His-SUMO-Fn14; His-SUMO-hFn14
T3 sequence (chain, as listed by the source limits assumed): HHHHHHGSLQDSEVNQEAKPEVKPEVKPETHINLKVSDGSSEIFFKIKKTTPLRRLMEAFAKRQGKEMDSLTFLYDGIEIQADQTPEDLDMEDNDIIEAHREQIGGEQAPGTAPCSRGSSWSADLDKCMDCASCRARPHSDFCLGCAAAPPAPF

| Binder | Kd | koff | kon |
| --- | --- | --- | --- |
| B6 | 0.132 nM | 0.000994 s⁻¹ | 7.52e+06 M⁻¹ s⁻¹ |
| B7 | 0.0714 nM | 0.000354 s⁻¹ | 4.96e+06 M⁻¹ s⁻¹ |

target: T3, His-SUMO-huFn14 (soluble human Fn14 aa …); assay: SPR single-cycle kinetics; mAb captured by anti-human Fc, His-Sumo-Fn14 analyte; average of three runs
Protocol: (§2) Alternatively, using a method referred to as “single cycle kinetics,” the His-Sumo-Fn14 was injected with increasing concentrations in a single cycle, the surface not being regenerated between injections. Specifically, anti-human Fc specific antibodies were immobilized on a CM5 sensor chip (cat# BR100012, GE Healthcare Life Sciences, Pittsburgh, Pennsylvania) by an amine coupling chemistry. Thereafter, humanized anti-Fn14 antibodies were captured at approximately 200 RUs, followed by injections of increasing concentrations of recombinant human His-Sumo-Fn14 protein. The association time was 120 seconds, and the final dissociation time was 900 seconds. At the end of the analyte injections, the surface was regenerated with 3M MgCl₂ for 30s. The raw data were double referenced by subtraction of the signals from a reference flow cell without immobilized ligand and a buffer blank. The sensorgram corresponding to each concentration was obtained (see FIG. 6B).

| Binder | Kd |
| --- | --- |
| B8 | 0.256 nM |
| B9 | 0.222 nM |
| B10 | 0.278 nM |
| B2 | 0.47 nM |
| B3 | 0.206 nM |
| B4 | 0.358 nM |

target: T3, His-SUMO-huFn14 (soluble human Fn14 aa …); assay: SPR single-cycle kinetics; mAb captured by anti-human Fc, His-Sumo-Fn14 analyte; 1:1 fit
Protocol: as §2

| Binder | Kd | koff | kon |
| --- | --- | --- | --- |
| B8 | 0.262 nM and 0.249 nM and 0.257 nM | 0.000756 s⁻¹ and 0.000773 s⁻¹ and 0.000764 s⁻¹ | 2.89e+06 M⁻¹ s⁻¹ and 3.11e+06 M⁻¹ s⁻¹ and 2.97e+06 M⁻¹ s⁻¹ |
| B9 | 0.191 nM and 0.237 nM (2×) | 0.000531 s⁻¹ and 0.000756 s⁻¹ and 0.000742 s⁻¹ | 2.78e+06 M⁻¹ s⁻¹ and 3.19e+06 M⁻¹ s⁻¹ and 3.13e+06 M⁻¹ s⁻¹ |
| B10 | 0.264 nM and 0.287 nM and 0.282 nM | 0.000871 s⁻¹ and 0.000843 s⁻¹ and 0.000825 s⁻¹ | 3.3e+06 M⁻¹ s⁻¹ and 2.9e+06 M⁻¹ s⁻¹ (2×) |
| B2 | 0.461 nM and 0.473 nM and 0.477 nM | 0.00144 s⁻¹ and 0.00154 s⁻¹ and 0.0015 s⁻¹ | 3.2e+06 M⁻¹ s⁻¹ (2×) and 3.1e+06 M⁻¹ s⁻¹ |
| B3 | 0.226 nM and 0.194 nM and 0.197 nM | 0.000679 s⁻¹ and 0.000664 s⁻¹ and 0.000652 s⁻¹ | 3e+06 M⁻¹ s⁻¹ and 3.43e+06 M⁻¹ s⁻¹ and 3.31e+06 M⁻¹ s⁻¹ |
| B4 | 0.374 nM and 0.347 nM and 0.353 nM | 0.000804 s⁻¹ and 0.000812 s⁻¹ and 0.000799 s⁻¹ | 2.2e+06 M⁻¹ s⁻¹ and 2.3e+06 M⁻¹ s⁻¹ (2×) |

target: T1, human Fn14 (full length) on cells; assay: cell-based or functional assay

| Binder | ICAM-1 MFI on HRMC, 250 ng/mL rhTWEAK, mAb 0.1 µg/mL |
| --- | --- |
| B11 | 5110 MFI |
| B12 | 5480 MFI |
| B13 | 6430 MFI |
| B14 | 11800 MFI |

target: T4, mouse Fn14 (full length) on transfected 293F cells (mouse, UniProt Q9CR75 28-129); assay: flow cytometry, hybridoma supernatant on 293F cells transfected with mouse Fn14, detected with anti-mouse IgG PE
T4 sequence: T1 sequence with A7S, R11S, R29P, P47H, T62V, F63L, G66A, L68V, G70S, A97G
Protocol: FIG. 1 depicts binding of anti-Fn14 hybridoma supernatants to human and mouse Fn14 transfected cells. […] Hybridoma supernatant binding was detected using anti-mouse IgG PE.
as §1, with “Cells were washed with SM and finally resuspended in 50 μL of SM.” left out

| Binder | binding result |
| --- | --- |
| B5 | binds |
